Measured values reported in PMC9618068.

Assays:
[1] = biological target: actin (ATP-G-actin from chicken skeletal muscle) (chicken) (UniProt P68139); test: ITC
[2] = biological target: actin (ATP-G-actin from chicken skeletal muscle) (chicken) (UniProt P68139)

Substance | stoichiometry N [1] | Pi released from actin in the presence of F1^15-160, compared to F1A [2] [%]
fragmin domain-1 (F1) (residues 1 to 160) (domain or fragment) | 0.956 | 
F1^15-160, an N-terminally truncated version of F1 that lacks Asn13 (domain or fragment) |  | 25
